Target: proliferating cell nuclear antigen (PCNA) (human (endogenous in HAP1)) (UniProt P12004)
Test: co-IP; Dynabeads Protein A cross-linked (BS3) with α-PCNA (PC10) or α-ENO1 (ab227978); 2 mg HAP1 cytosolic cell extract, 4 °C overnight; washes with 600 mM NaCl; western blot; both directions

Sequence of UniProt P12004 (P12004 whole entry): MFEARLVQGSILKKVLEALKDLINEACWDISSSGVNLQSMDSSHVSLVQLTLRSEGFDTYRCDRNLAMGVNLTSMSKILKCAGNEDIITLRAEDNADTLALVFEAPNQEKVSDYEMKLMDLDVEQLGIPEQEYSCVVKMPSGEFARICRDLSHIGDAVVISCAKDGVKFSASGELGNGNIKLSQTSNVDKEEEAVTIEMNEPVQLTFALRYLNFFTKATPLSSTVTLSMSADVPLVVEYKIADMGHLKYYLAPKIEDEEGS

- percent reduction of the interaction against WT ENO1: 80 to 90%
Substance: ENO1 F423A (from UniProt P06733 1-434) (enzyme)

— PMC9937922
